Where a chain is given by its changes, count along the chain named.
B1: G5: soybean EPSPS mutant, SEQ ID NO: 12, mutations S265(247)G and P114(101)S (protein)
chain: MAAAEKPSTAPEIVLEPIKDISGTITLPGSKSLSNRILLLAALSEGTTVVDNLLYSEDIHYMLGALRTLGLRVEDDQTTKQAIVEGCGGLFPTIKESKDEINLFLGNAGTAMRSLTAAVVAAGGNASYVLDGVPRMRERPIGDLVAGLKQLGADVDCFLGTNCPPVRVNGKGGLPGGKVKLSGSVSSQYLTALLMAAPLALGDVEIEIVDKLISVPYVEMTLKLMERFGVSVEHSGDWDKFLVHGGQKYKSPGNAFVEGDASSAGYFLAGAAVTGGTITVNGCGTSSLQGDVKFAEVLEKMGAKVTWSENSVTVTGPPQDSSGQKVLQGIDVNMNKMPDVAMTLAVVALFANGQTTIRDVASWRVKETERMIAICTELRKLGATVEEGPDYCVITPPEKLNVTAIDTYDDHRMAMAFSLAACGDVPVTIKDPGCTRKTFPDYFEVLERFTRH
B2: T0: wild-type wheat EPSPS, amino acid sequence SEQ ID NO: 14; control (protein, listed as Triticum aestivum)
chain: MATSVAAPAAPAGAEEVVLQPIREISGAVQLPGSKSLSNRILLLSALSEGTTVVDNLLNSEDVHYMLEALEALGLSVEADKVAKRAVVVGCGGRFPVEKDAKEEVKLFLGNAGTAMRPLTAAVVAAGGNATYVLDGVPRMRERPIGDLVVGLQQLGADVDCFLGTNCPPVRINGKGGLPGGKVKLSGSISSQYLSSLLMAAPLALEDVEIEIIDKLISVPYVEMTLKLMEHFGVTAEHSDSWDRFYIKGGQKYKSPGNAYVEGDASSASYFLAGAAITGGTVTVEGCGTTSLQGDVKFAEVLEMMGAKVTWTDTSVTVTGPPRQPFGRKHLKAVDVNMNKMPDVAMTLAVVALFADGPTAIRDVASWRVKETERMVAIRTELTKLGATVEEGPDYCIITPPEKLNITAIDTYDDHRMAMAFSLAACAEVPVTIRDPGCTRKTFPNYFDVLSTFVKN
B3: T1: wheat EPSPS mutant, SEQ ID NO: 16, mutation S269(247)G (protein)
chain: B2 chain with S269G

Tested on: transgenic rice plants
Experiment: glyphosate resistance of the EPSPS mutant in transgenic rice plants sprayed with Roundup 41% ammonium glyphosate
Assay type: in vivo, rice (Nipponbare)
From the text: A method for detecting the glyphosate resistance of G1 (SEQ ID NO: 4) provided in Example 1, G3 (SEQ ID NO: 8) provided in Example 2, G4 (SEQ ID NO: 10) provided in Example 3, the soybean EPSPS mutant G5 (SEQ ID NO: 12) provided in Example 4, T1 (SEQ ID NO: 16) provided in Example 5, T3 (SEQ ID NO: 20) provided in Example 6, T4 (SEQ ID NO: 22) provided in Example 7, T5 (SEQ ID NO: 24) provided in Example 8, the wheat EPSPS mutant T6 (SEQ ID NO: 26) provided in Example 9, R1 (SEQ ID NO: 30) provided in Example 10, R3 (SEQ ID NO: 34) provided in Example 11, R4 (SEQ ID NO: 36) provided in Example 12, R5 (SEQ ID NO: 38) provided in Example 13, and the rice EPSPS mutant R6 (SEQ ID NO: 40) provided in Example 14 in the transgenic rice is as follows:
The plasmids (containing the EPSPS mutation gene) of the monoclonal resistant bacteria of pADV5-EPSPS in Examples 1-7 were extracted by a conventional method, followed by double enzyme digestion by Pac1 and BstEII, the small fragments were collected, and then the small fragments were ligated by using T4 DNA ligase, to the pGVP1 vectors that had undergone the same double enzyme digestion, to obtain a pGVP1-EPSPS vector having a structure as shown in FIG. 23.
EHA105 (Agrobacterium tumefaciens) competent cells were transformed by the pGVP1-EPSPS vector, and single colonies were picked up to perform bacterial colony PCR detection to identify positive strains; then the positive strains were inoculated into 1 mL of YEP culture medium containing 50 μg·mL^−1 kanamycin and 50 μg·mL^−1 rifampin to propagate, and then preserved at −80° C., or used for subsequent experiment.
400 μl of bacterium containing the target gene vector preserved at −80° C. was added to a culture dish of solid culture media containing YEP+50 μg/mL rifampin+50 μg/mL kanamycin, and cultured in the dark at 28° C. for 24 hours, then this bacterium was added to an infection culture medium, and this bacterial solution was adjusted to OD=0.2 as an infection liquid.
Sterilization and pre-culturing: mature rice (Nipponbare) seeds were manually shelled, and full seeds without bacterial plaque were selected, and sterilized according to following steps: putting the seeds into a 50 ml sterile centrifuge tube, adding 70% alcohol for disinfection for 30 seconds, pouring out the alcohol, and cleaning the seeds once with sterile water; adding 10-20 ml of 2.6% sodium hypochlorite solution for soaking and sterilizing for 20 minutes, pouring out the sodium hypochlorite solution, and soaking and cleaning the seeds with sterile water for 6-7 times, 3 minutes each time.
Induction and subculturing: the seeds were put on sterile filter paper for drying, and mature embryos were put in an induction culture medium with 12 embryos in each dish; the culture dishes were sealed with a sealing film after the operation was finished, the mature embryos were cultured in the dark at 30° C. for 21-28 days, calluses were transferred into a fresh culture medium, and continuously cultured for about 7-14 days, and spherical calluses with a size of 1-2 mm were taken as infection receptors.
the calluses were inoculated into a centrifuge tube or a culture cup, the prepared Agrobacterium tumefaciens suspension liquid was added for infection for 10 minutes, wherein the calluses were shaken several times; the bacterial solution was poured out, the calluses were taken out, and placed on sterile filter paper to suck out the surface bacterial solution (about 30 minutes); and the calluses were put on sterile filter paper in a culture dish, and cultured in the dark at 25° C. for 2-3 days.
Recovery culturing: the calluses having undergone co-culturing were inoculated in a recovery culture medium, and cultured in the dark at 30° C. for 5-7 days. First round of screening: the calluses were transferred to screening culture media 1 (S1) and cultured in the dark at 30° C. for 14 days. […]

[1] = 1× dosage 1060 g/hectare glyphosate sprayed, recorded on 10th day
[2] = 2× dosage 2120 g/hectare sprayed to plants surviving 1×, recorded 10 days later
[3] = 5× dosage 5300 g/hectare sprayed to plants surviving 2×, recorded 10 days later
[4] = 20× dosage 21200 g/hectare sprayed to plants surviving 5×, recorded 10 days later

Molecule | %++&+++ (percentage of plant having medium and high glyphosate resistance to the total number of plants observed) [1] [%] | number of plants denoted by + (low glyphosate resistance) [1] | number of plants denoted by ++ (medium glyphosate resistance) [1] | number of plants denoted by +++ (high glyphosate resistance) [1] | number of plants denoted by − (no glyphosate resistance) [1] | glyphosate resistance / survival of the rice transformed by the EPSPS, in words (1× glyphosate dosage) | %++&+++ (percentage of plant having medium and high glyphosate resistance to the total number of plants observed) [2] [%] | number of plants denoted by + (low glyphosate resistance) [2] | number of plants denoted by ++ (medium glyphosate resistance) [2] | number of plants denoted by +++ (high glyphosate resistance) [2] | number of plants denoted by − (no glyphosate resistance) [2] | &++&+++ (percentage of plant having medium and high glyphosate resistance to the total number of plants observed) [3] [%] | number of plants denoted by + (low glyphosate resistance) [3] | number of plants denoted by ++ (medium glyphosate resistance) [3] | number of plants denoted by +++ (high glyphosate resistance) [3] | number of plants denoted by − (no glyphosate resistance) [3] | &++&+++ (percentage of plant having medium and high glyphosate resistance to the total number of plants observed) [4] [%] | number of plants denoted by + (low glyphosate resistance) [4] | number of plants denoted by ++ (medium glyphosate resistance) [4] | number of plants denoted by +++ (high glyphosate resistance) [4] | other results
B1 | 69.1 | 14 | 18 | 49 | 16 | had certain resistance to glyphosate | 34.0 | 43 | 23 | 10 | 21 | 7.2 | 53 | 6 | 1 | 37 | 0.0 | 24 | 0 | 0 | glyphosate resistance / survival of the rice transformed by the EPSPS, in words (2× glyphosate dosage): some of the rice seedlings containing the soybean EPSPS mutants G3 and G5 still survived; glyphosate resistance / survival of the rice transformed by the EPSPS, in words (5× glyphosate dosage): some of the rice seedlings containing the soybean EPSPS mutants G3 and G5 still survived; number of plants denoted by − (no glyphosate resistance) [4]: 73; glyphosate resistance / survival of the rice transformed by the EPSPS, in words (20× glyphosate dosage): some of the rice seedlings containing the soybean EPSPS mutants G3 and G5 still survived
B2 | 0.0 | 1 | 0 | 0 | 32 | had no resistance, one was seriously damaged, and all the others died | 0.0 | 0 | 0 | 0 | 33 | 0.0 | 0 | 0 | 0 | 33 | 0.0 | 0 | 0 | 0 | number of plants denoted by − (no glyphosate resistance) [4]: 33
B3 | 27.0 | 28 | 15 | 2 | 18 | obviously superior to that of the rice seedlings transformed by T0 | 1.6 | 32 | 1 | 0 | 30 | 0.0 | 2 | 0 | 0 | 61 | 0.0 | 0 | 0 | 0 | glyphosate resistance / survival of the rice transformed by the EPSPS, in words (2× glyphosate dosage): some of the transgenic rice seedlings transformed by T4, T1 and T5 still survived; glyphosate resistance / survival of the rice transformed by the EPSPS, in words (5× glyphosate dosage): some of the transgenic rice seedlings transformed by T4, T1 and T5 still survived; number of plants denoted by − (no glyphosate resistance) [4]: 63
